Laboratory results as given in doi:10.1101/2020.12.22.424058, “Structural basis for the dimerization-dependent CRISPR-Cas12f nuclease” (bioRxiv, 2020).
Changes are numbered by the printed parent chain. Names may count otherwise.

Key:
[1] = molecular target: the molecule itself; assay: cryo-EM structure; Cas12f D510A with sgRNA (222 nt) and target dsDNA (60 bp, TTTA PAM) at 1:1.2:1.3, 37°C, then SEC (Superdex 200) in 25 mM Tris-HCl pH 7.6, 150 mM NaCl, 2 mM DTT, 1 mM MgCl2; ternary complex, 3.1 Å; the two Cas12f copies are bound to one sgRNA
[2] = molecular target: the molecule itself; assay: cryo-EM structure; Cas12f with sgRNA at 1:1.2, 37°C for 30 min in 25 mM Tris-HCl pH 7.6, 150 mM NaCl, 2 mM DTT, 1 mM MgCl2; binary complex, 3.9 Å; the two Cas12f copies are bound to one sgRNA

B1: Un1Cas12f1^D510A (enzyme, UniProt A0A482D308 1-529, looked up)
chain: MAKNTITKTLKLRIVRPYNSAEVEKIVADEKNNREKIALEKNKDKVKEACSKHLKVAAYCTTQVERNACLFCKARKLDDKFYQKLRGQFPDAVFWQEISEIFRQLQKQAAEIYNQSLIELYYEIFIKGKGIANASSVEHYLSDVCYTRAAELFKNAAIASGLRSKIKSNFRLKELKNMKSGLPTTKSDNFPIPLVKQKGGQYTGFEISNHNSDFIIKIPFGRWQVKKEIDKYRPWEKFDFEQVQKSPKPISLLLSTQRRKRNKGWSKDEGTEAEIKKVMNGDYQTSYIEVKRGSKIGEKSAWMLNLSIDVPKIDKGVDPSIIGGIDVGVKSPLVCAINNAFSRYSISDNDLFHFNKKMFARRRILLKKNRHKRAGHGAKNKLKPITILTEKSERFRKKLIERWACEIADFFIKNKVGTVQMENLESMKRKEDSYFNIRLRGFWPYAEMQNKIEFKLKQYGIEIRKVAPNNTSKTCSKCGHLNNYFNFEYRKKNKFPHFKCEKCNFKENAAYNAALNISNPKLKSTKEEP
notes: Cas12f (UnCas12f1, Un1Cas12f1; also known as Cas14), 529 amino acids, 61.5 kDa; plasmid Addgene #112500; Two copies (Cas12f.1 and Cas12f.2) stand in the complex with one sgRNA and the target dsDNA; The model lacks three N-terminal and four C-terminal residues; also called Cas12f D510A mutant; source: E. coli BL21(DE3), purified (Ni-NTA, HiTrap SP HP, Superdex 200); not shown: 10xHis, N-terminal, …
stoichiometry N [1]: 2

B2: Cas12f (UnCas12f1) (enzyme, UniProt A0A482D308 1-529, looked up)
chain: B1 chain with A510D
notes: Cas12f (UnCas12f1, Un1Cas12f1; also known as Cas14), 529 amino acids, 61.5 kDa; plasmid Addgene #112500; The methods say only 'Cas12f proteins' for the binary complex with sgRNA; also called Un1Cas12f1; Cas14; source: E. coli BL21(DE3), purified (Ni-NTA, HiTrap SP HP, Superdex 200); not shown: 10xHis, N-terminal, cleaved; MBP, N-terminal, cleaved
binding result [2]: binds
